Laboratory results: publication PMC11648230, “Structure–function analysis of tRNA t6A-catalysis, assembly, and thermostability of Aquifex aeolicus TsaD2B2 tetramer in complex with TsaE”

Columns and labels:
[1] = target: TmTsaD;TmTsaB dimer-interface mutant (Thermotoga maritima;Thermotoga maritima, UniProt Q9WXZ2;Q9WZX7 1-327;1-206, |E20A;D21A;L22A;E24A;S26A;Y27A;T28A;E30A;K31A); assay: EMSA; TsaDB dimer; EMSA: 1 uM 6-FAM-tRNA, 0-100 uM protein, 2% agarose, 20 mM Tris-HCl/50 mM glycine pH 8.5 running buffer (loading buffer for native gels 20 mM Tris-HCl pH 7.5, 300 mM NaCl, 25% glycerol); MST: 10 nM tRNA, 20 mM PBS pH 7.5, 300 mM NaCl, 0.05% Tween 20, 25 C; conditions: protein: recombinant;recombinant; tags: ;; copies: 1;1; label: 5' 6-FAM; tRNA cloverleaf
TmTsaD;TmTsaB = TmTsaD;TmTsaB (Thermotoga maritima;Thermotoga maritima, UniProt Q9WXZ2;Q9WZX7 1-327;1-206, |); assay: EMSA; TsaD2B2 tetramer; EMSA: 1 uM 6-FAM-tRNA, 0-100 uM protein, 2% agarose, 20 mM Tris-HCl/50 mM glycine pH 8.5 running buffer (loading buffer for native gels 20 mM Tris-HCl pH 7.5, 300 mM NaCl, 25% glycerol); MST: 10 nM tRNA, 20 mM PBS pH 7.5, 300 mM NaCl, 0.05% Tween 20, 25 C; conditions: protein: recombinant;recombinant; tags: ;; chain copies: 2;2; label: 5' 6-FAM; tRNA cloverleaf
AaTsaD;AaTsaBmut = AaTsaD;AaTsaBmut (Aquifex aeolicus;Aquifex aeolicus, UniProt O66986;O66494 1-335;1-200+=WEKKKRG, |internal_change); assay: EMSA; TsaD2Bmut2 tetramer; EMSA: 1 uM 6-FAM-tRNA, 0-100 uM protein, 2% agarose, 20 mM Tris-HCl/50 mM glycine pH 8.5 running buffer (loading buffer for native gels 20 mM Tris-HCl pH 7.5, 300 mM NaCl, 25% glycerol); MST: 10 nM tRNA, 20 mM PBS pH 7.5, 300 mM NaCl, 0.05% Tween 20, 25 C; conditions: protein: recombinant;recombinant; tags: ;C-terminal 6His; chain copies: 2;2; label: 5' 6-FAM; tRNA cloverleaf
AaTsaD del34-38;AaTsaB = AaTsaD del34-38;AaTsaB (Aquifex aeolicus;Aquifex aeolicus, UniProt O66986;O66494 1-335;1-200, del34-38|); assay: EMSA; tighter than TsaD2B2; EMSA: 1 uM 6-FAM-tRNA, 0-100 uM protein, 2% agarose, 20 mM Tris-HCl/50 mM glycine pH 8.5 running buffer (loading buffer for native gels 20 mM Tris-HCl pH 7.5, 300 mM NaCl, 25% glycerol); MST: 10 nM tRNA, 20 mM PBS pH 7.5, 300 mM NaCl, 0.05% Tween 20, 25 C; conditions: protein: recombinant;recombinant; tags: ;C-terminal 6His; chain copies: 2;2; label: 5' 6-FAM; tRNA cloverleaf
AaTsaD;AaTsaB = AaTsaD;AaTsaB (Aquifex aeolicus;Aquifex aeolicus, UniProt O66986;O66494 1-335;1-200, |); assay: MST; not saturated at 100 uM; stronger than AaTsaDB; EMSA: 1 uM 6-FAM-tRNA, 0-100 uM protein, 2% agarose, 20 mM Tris-HCl/50 mM glycine pH 8.5 running buffer (loading buffer for native gels 20 mM Tris-HCl pH 7.5, 300 mM NaCl, 25% glycerol); MST: 10 nM tRNA, 20 mM PBS pH 7.5, 300 mM NaCl, 0.05% Tween 20, 25 C; conditions: protein: recombinant;recombinant; tags: ;C-terminal 6His; chain copies: 2;2; label: 5' 6-FAM; tRNA cloverleaf
EcTsaD;EcTsaB = EcTsaD;EcTsaB (Escherichia coli;Escherichia coli, UniProt P05852;P76256 1-337;1-231, |); assay: EMSA; TsaDB dimer; EMSA: 1 uM 6-FAM-tRNA, 0-100 uM protein, 2% agarose, 20 mM Tris-HCl/50 mM glycine pH 8.5 running buffer (loading buffer for native gels 20 mM Tris-HCl pH 7.5, 300 mM NaCl, 25% glycerol); MST: 10 nM tRNA, 20 mM PBS pH 7.5, 300 mM NaCl, 0.05% Tween 20, 25 C; conditions: protein: recombinant;recombinant; tags: ;; copies: 1;1; tRNA cloverleaf
Chain of EcTsaD;EcTsaB (P05852 whole entry, chain 1 of 2): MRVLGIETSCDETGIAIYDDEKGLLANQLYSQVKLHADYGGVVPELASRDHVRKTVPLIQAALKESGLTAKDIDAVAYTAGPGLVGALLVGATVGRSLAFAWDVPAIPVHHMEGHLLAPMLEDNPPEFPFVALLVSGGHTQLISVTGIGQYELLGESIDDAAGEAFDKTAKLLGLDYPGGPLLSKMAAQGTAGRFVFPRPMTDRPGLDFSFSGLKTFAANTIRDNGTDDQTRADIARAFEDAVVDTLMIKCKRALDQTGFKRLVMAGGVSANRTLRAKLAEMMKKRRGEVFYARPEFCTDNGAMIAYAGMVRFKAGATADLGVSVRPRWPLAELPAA
Chain of EcTsaD;EcTsaB (P76256 whole entry, chain 2 of 2): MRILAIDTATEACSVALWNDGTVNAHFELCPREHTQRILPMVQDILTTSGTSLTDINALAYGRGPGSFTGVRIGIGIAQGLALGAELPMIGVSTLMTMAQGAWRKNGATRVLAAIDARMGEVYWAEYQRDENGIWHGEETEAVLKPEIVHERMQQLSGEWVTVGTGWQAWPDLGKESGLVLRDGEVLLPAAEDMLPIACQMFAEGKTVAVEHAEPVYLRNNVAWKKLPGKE

Chain of AaTsaD;AaTsaBmut (O66986 whole entry, stated change not applied, chain 1 of 2): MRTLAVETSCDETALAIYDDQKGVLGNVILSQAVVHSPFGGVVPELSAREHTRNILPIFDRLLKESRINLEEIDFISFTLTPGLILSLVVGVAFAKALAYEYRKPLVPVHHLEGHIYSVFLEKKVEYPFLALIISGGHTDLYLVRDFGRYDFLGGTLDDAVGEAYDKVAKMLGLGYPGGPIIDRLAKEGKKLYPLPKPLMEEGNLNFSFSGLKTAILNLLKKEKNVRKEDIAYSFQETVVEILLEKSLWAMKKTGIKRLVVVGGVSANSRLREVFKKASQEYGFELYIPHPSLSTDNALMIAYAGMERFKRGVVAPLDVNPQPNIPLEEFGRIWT
Chain of AaTsaD;AaTsaBmut (chain, as listed by the source |, chain 2 of 2): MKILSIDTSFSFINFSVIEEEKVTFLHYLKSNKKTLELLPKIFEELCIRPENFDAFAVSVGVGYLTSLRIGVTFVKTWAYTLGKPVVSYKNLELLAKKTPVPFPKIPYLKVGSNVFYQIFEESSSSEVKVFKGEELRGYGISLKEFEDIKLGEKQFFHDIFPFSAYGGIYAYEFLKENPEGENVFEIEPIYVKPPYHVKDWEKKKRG
Chain of AaTsaD;AaTsaB (O66986 whole entry, chain 1 of 2): as the sequence (O66986 whole entry, stated change not applied, chain 1 of 2) above
Chain of AaTsaD;AaTsaB (chain, as listed by the source |, chain 2 of 2): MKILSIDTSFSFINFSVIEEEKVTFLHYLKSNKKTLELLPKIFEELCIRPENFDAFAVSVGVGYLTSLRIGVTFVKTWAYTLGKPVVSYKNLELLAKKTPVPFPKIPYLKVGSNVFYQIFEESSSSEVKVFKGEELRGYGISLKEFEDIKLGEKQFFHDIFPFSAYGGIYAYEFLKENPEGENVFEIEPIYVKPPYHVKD
Chain of AaTsaD del34-38;AaTsaB (O66986 other isoform, or with tags, fused parts or gaps del34-38|, chain 1 of 2): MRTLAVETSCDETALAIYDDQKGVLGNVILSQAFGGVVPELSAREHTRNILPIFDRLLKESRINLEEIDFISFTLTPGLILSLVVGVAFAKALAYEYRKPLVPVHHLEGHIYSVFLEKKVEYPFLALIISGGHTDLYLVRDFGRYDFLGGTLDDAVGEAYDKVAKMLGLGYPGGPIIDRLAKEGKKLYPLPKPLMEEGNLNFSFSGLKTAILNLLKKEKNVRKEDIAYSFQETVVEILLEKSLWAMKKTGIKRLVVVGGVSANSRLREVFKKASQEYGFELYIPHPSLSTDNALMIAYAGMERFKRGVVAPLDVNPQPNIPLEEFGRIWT
Chain of TmTsaD;TmTsaB (Q9WXZ2 whole entry, chain 1 of 2): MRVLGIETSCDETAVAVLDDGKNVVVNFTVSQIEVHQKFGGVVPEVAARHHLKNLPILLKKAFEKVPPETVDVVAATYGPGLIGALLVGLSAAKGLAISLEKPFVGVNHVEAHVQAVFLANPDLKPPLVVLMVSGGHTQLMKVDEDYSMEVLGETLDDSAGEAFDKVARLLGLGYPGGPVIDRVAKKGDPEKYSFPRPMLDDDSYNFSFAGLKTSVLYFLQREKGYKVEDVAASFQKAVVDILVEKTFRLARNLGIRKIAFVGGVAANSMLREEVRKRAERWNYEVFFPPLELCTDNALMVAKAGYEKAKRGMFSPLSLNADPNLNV
Chain of TmTsaD;TmTsaB (Q9WZX7 whole entry, chain 2 of 2): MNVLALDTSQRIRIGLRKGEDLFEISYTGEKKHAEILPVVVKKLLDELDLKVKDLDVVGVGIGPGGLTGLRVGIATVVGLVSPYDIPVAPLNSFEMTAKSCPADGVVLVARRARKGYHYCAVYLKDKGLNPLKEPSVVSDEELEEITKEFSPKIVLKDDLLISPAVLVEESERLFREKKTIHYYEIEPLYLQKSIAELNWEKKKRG
Chain of TmTsaD;TmTsaB dimer-interface mutant (Q9WXZ2 whole entry, stated change not applied, chain 1 of 2): as the sequence (Q9WXZ2 whole entry, chain 1 of 2) above
Chain of TmTsaD;TmTsaB dimer-interface mutant (Q9WZX7 whole entry E20A/D21A/L22A/E24A/S26A/Y27A/T28A/E30A/K31A, chain 2 of 2): as the sequence (Q9WZX7 whole entry, chain 2 of 2) above, with E20A, D21A, L22A, E24A, S26A, Y27A, T28A, E30A, K31A counted along it

B1: T. maritima tRNALysUUU (structured_RNA)
RNA: GACCCGGUAGCUCAGCAGGCAGAGCACCUGACUUUUAAUCAGGGGGUCGUGGGUUCGAAUCCCACCCGGGUCACCA
Kd [1]: 1720 nM | Kd (TmTsaD;TmTsaB): 1200 nM

B2: A. aeolicus tRNALysUUU (structured_RNA)
RNA: GAGCCGGUAGCUCAGUUGGUAGAGCAACGGCCUUUUAAGCCGUGGGUCGCGGGUUCGAGUCCCGCCCGGCUCACCA
Kd (AaTsaD;AaTsaBmut): ~1160 nM | binding result (AaTsaD del34-38;AaTsaB): binds | binding result (AaTsaD;AaTsaB): binds

B3: E. coli tRNALysUUU (structured_RNA)
RNA: GGGUCGUUAGCUCAGUUGGUAGAGCAGUUGACUUUUAAUCAAUUGGUCGCAGGUUCGAAUCCUGCACGACCCACCA
binding result (EcTsaD;EcTsaB): no binding
